Results as given in the RNAGym collection of RNA variant scans (doi:10.1073/pnas.2313332121).

B1: TPR t1 (parent)
chain: GACCAAUCUGCCCUCAGAGCUCGAGAACAUCUUCGGAUGCAGAGGAGGCAGGCUUCGGUGGCGCGAUAGCGCCAACGUCCUCAACCUCCAAUGCAUCCCACCACAUGAUGAUGCCUGAAGAGCCUUGGUUUUUUG

Variants of: B1
Assay: polymerase ribozyme fitness, log enrichment relative to wild type (log ratio); higher = more active; in vitro selection for triplet polymerase activity
Outline: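 After PCR construction and transcription, each subunit's mutant library from a heterodimeric triplet polymerase ribozyme was annealed with a biotinylated primer, the partner subunit and triplets. Incubation was frozen, at −7 °C, and extended constructs were gel-excised, bound to streptavidin beads and amplified by RT-PCR, in one selection round done in triplicate. Fitness is the logarithm of a genotype's enrichment divided by that of the wild type, from inverse-variance-weighted replicate averages of Illumina-sequenced inputs and outputs. The base of the logarithm is 2, and genotypes needed ≥10 input reads and ≥1 read per output.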

Row | Variant | polymerase ribozyme fitness (log ratio)
1 | GACCUAUCUGCGCUCAGAGCUCGAGAACAUCUUCGGAUGCAGAGGAGGCAGGCUUCGCUGGCGCGAUAGCGCCAACGUCCUCAACCUCCUAUGCAUCCCACCACAUGAUGAUGCCUGAAGAGCGUUGAUUUUUUG [A5U C12G G58C A90U C124G G128A] | -2.47
2 | GACCUAUCUGCCCUCAGAGCUCGAGAACAUCUUCGGAUGCAGAGGCGGCAGGUUUCGGUGGCGCGAUAGCGCCAACGUCCUCAACCUCCAAUGCAGCCCACUACAUGAUGAUGCCUGAAGAGCCUUGGUUUUUUG [A5U A46C C53U U96G C102U] | -4.66
3 | GACCUAUCUGCCCUCAGAGCUCGAGAACAUCUUCGGAUGCUGAGGAGGCAGGCUUCGGUGGCGUGAUAGCGCCAACGUCCUCAACCUCCAAUGCAUCCCACCACAUGAUGAUGCCUGAACAGCCUUGGUUUUUUG [A5U A41U C64U G120C] | -1.19
4 | GACCUAUCUGACCUCAGAGCUCGAGAACAUCUUCGGAUGCAGAGGAGGCAGGCUUCGGUGGCUCGAUAGCGCCAACGUCCUCAACCUCCAAUUCAUCCCACCACAUGAUGAUGCCUGAAGAGCCUUGGUUUUUUG [A5U C11A G63U G93U] | -3.79
5 | GACCUAUCUGCCCUCAGAGCUCGAGAACAUCUUCGGAUGCAGAGGAGGCAGGCUUCGGUGGCGCGAUAGCGCCAACGUCCUCAACCUCCAAUGCAUCCCACCACAUGAUGAUGCCUGAGGAGCCUUGGUUUUUUG [A5U A119G] | 0.901
6 | GACCUAUCUGCCCUCAGAGCUCGAGAACAUCUUCGGAUGCAGGAGAGGCAGCCUUCGGUGGCGCGAUAGCGCCAACGUCCUCAACCUCCAAUGCAUCCCACCACAUGAUGAUGCCUGAAGAGCUUUGUUUUUUUG [A5U A43G G44A G52C C124U G128U] | -4.6
7 | GACCUAUCUGCCCUCAGAGCUCGAGAACAUCUUCGGAUGCAGAGGUGGCAGGCUUCGGUGGCGCGAUAGCGCAAACGUCCUCAACCUCCUAUGCAUCCCACCACAUGAUGAUGCCUGAAGAGACUUGGUUUUUUG [A5U A46U C73A A90U C123A] | -1.41
8 | GACCUAUCUGCCCUCAGAGCUCGAGAACAUCUUCGGAUGCAGAGGAGGCAGGCUUCGGUGGCGCGAUAGCGCCAACGUCCUCAACCUCCAAUGCCUCCCACCACAUGAUGAUGCCUGAAGAGCCUUGGUUUUUUG [A5U A95C] | -1.24
9 | GACCUAUCUGCCCUCAGAGCUCGAGAACAUCUUCGGAUGCAGAGGAGGCUGGCUUCGGUGUCGCGAUAGCGCCAACGUCCUCAACCUGCAAUGCAUCCCACCACAUGAUGAUGCCUGAAGAGCCUUGGUUUUUUG [A5U A50U G61U C88G] | -1
10 | GACCUAUCUGCCCUCAGAGCUCGAGAACAUCUUCGGAUGCAGAGGCGGCAGGCUUCGGUGGCGCGAUAGCGCAAACGUCCUCAACCUCCAAUGCAUCUCACCACAUGAUGAUGCCUGAAGAGCCUUGGUUUUUUG [A5U A46C C73A C98U] | -1.57
11 | GACCUAUCUGUCCUCAGAGCUCGAGAACAUCUUCGGAUGCAGAGGAGGCAGGCUUCGGUGGCGCGAUAGCGCCAACGUCCUCAACCUCCAAUGCAUCCCACCACAUGAUGAUGCCUGAAGAGCCUUGGUUUUUUG [A5U C11U] | -1.46
12 | GACCUAUCUGGCCUCAGAGCUCGAGAACAUCUUCGGAUGCAGAGGAGGCAGGCUUCGGUGGCGCGAUAGCGCCAACGUCCUCAACCUCCAAUGCAUCCCACCACAUGAUGAUGCCUGAAGAGCCUUGGUUUUUUG [A5U C11G] | -0.477
13 | GACCUAUCUGCUCUCAGAGCUCGAGAACAUCUUCGGAUGCAGAGGAGGUAGGCUUCGGUGGCGCGAUAGCGCCAACGUCCUCAACCUCCAAUGUAUCCCACCACAUGAUGAUGCCUGAAGAGCCUUGGUUUUUUG [A5U C12U C49U C94U] | -2.22
14 | GACCUAUCUGCCCUCAGAGCUCGAGAACAUCUUCGGAUGCAGAGGAGGCAGGCUUCGGUGGCGCGAUAGCGCCAACGUCCUCAACCUCCAAUGCAUCCCACCCCAUGAUAAUCCCUGAAGAGCCUUGGUUUUUUG [A5U A103C G110A G113C] | -5.8
15 | GACCUAUCUGCGCUCAGAGCUCGAGAACAUCUUCGGAUGCAGAGGAGGCAGGCUUCGGUGGCGCGAUAGCGCCAACGUCCUCAACCUCUAAUGCAUCCCACCCCAUGAUGAUGCCUUAAGAGCCUUGGUUUUUUG [A5U C12G C89U A103C G117U] | -6.59
16 | GACCUAUCUGCACUCAGAGCUGGAGACCAUCUUCGGAGGCAGAGGAGGCAGGCUUCGGUGGCGCGAUAGCGCCAACGUCCUCAACCUCCAAUGCAUCCCACCACAUGAUGUUGCCUGAAGAGCCUUGGUUUUUUG [A5U C12A C22G A27C U38G A111U] | -2.81
17 | GACCUAUCUGCGCUCAGAGCUCGAGAACAUCUUCGGAUGCAGAGGAGGGAGGCUUCGGUGGCGCGAUAGCGCCAACGUCCACAACCUCCAAUGCAUCCCACCACAUGAUGAUGCCUGAAGAGCCUUAGUUUUUUG [A5U C12G C49G U81A G127A] | -4.64
18 | GACCUAUCUGCCCUCAGAGCUCGAGAACAUCUUCGGAUGCAGAGGAGGCAGGCUUCGGUGGCGCGAUAGCGCCAACGUCCUCAACCUCCAUUGCAUCCCACCACAUGAUGAUGCCUGAAGAGCCUUGGUUUUUUG [A5U A91U] | -3.29
19 | GACCUAUGUGCCCUCAGAGCUCGAGAACAUCUUCGGAUGCAGAGGAGGCAGGCUUCGGUGGCGCGAUAGCGCCAACGUCAUCUACCUCCAAUGCAUCCCACCACAUGAUGAUGCCUGAAGAGCCUUGGUUUUUUG [A5U C8G C80A A83U] | -3.88
20 | GACCUAUCUGCUCUCAGAGCUCGAGAACAUCUUCGGAUGCAGAGGAGGCAGGCUUCGGUGACGCGAUAGCGCCAACGUCCUCAACCUCCAAUGCAUCCCACCACAUGAUGAUGCCUGAAGAGCCUUGGUUUUUUG [A5U C12U G61A] | 0.0113
21 | GACCUAUCUGCCCUCAGAGCUCGAGAACAUCUUCGGAUGCAGAGGAGGCAGGCUUCGGUGGCGCGCUAGCGCCAACGUCCUCAACCUCCAAUGCAUCCCACCACAUGAUGAUUCCUGAAGAGCAUUGGUUUUUUG [A5U A66C G113U C124A] | -4.62
